Reference: publication PMC11062913, “Structural basis of Integrator-dependent RNA polymerase II termination” (Nature, 2024)

Biological target: T1, Integrator subunit INTS11(E203Q) (human, UniProt Q5TA45 1-600, E203Q)
T1 construct: INTS11, human; endonuclease subunit of the Integrator cleavage module; E203Q mutant with reduced catalytic activity used in all complexes for cryo-EM and XL-MS; Stood in the assays as a subunit of the Integrator–PP2A complex; also called INTS11(E203Q) mutant
Assay: cross-linking; XL-MS of the PEC–Integrator–PP2A–SOSS complex (mixed population of pre- and post-termination complexes): pooled glycerol-gradient peak fractions, 3 mM BS3, 30 min, 30 °C
Details: both partners purified

binding result: binds
B1: NABP2 (natural protein, human, UniProt Q9BQ15-1 1-211, looked up)
chain: MTTETFVKDIKPGLKNLNLIFIVLETGRVTKTKDGHEVRTCKVADKTGSINISVWDDVGNLIQPGDIIRLTKGYASVFKGCLTLYTGRGGDLQKIGEFCMVYSEVPNFSEPNPEYSTQQAPNKAVQNDSNPSASQPTTGPSAASPASENQNGNGLSAPPGPGGGPHPPHTPSHPPSTRITRSQPNHTPAGPPGPSSNPVSNGKETRRSSKR
notes: Treated with lambda protein phosphatase during purification; also called SOSS factor NABP2
